Consider 3 molecules from patent US6838446B1, “Vector for expression of GPI-enzyme hybrid” (AstraZeneca AB, priority 1999, dated 2005).

For series [1] the following is noted: bacterially expressed standard (Sigma C4053); cited from earlier work.
Series [2] can be described thus: HPLC based CPG2 enzyme activity assay with CPG2 capture ELISA, supernatants of adenovirally infected CHO K1 cells. Type of series: biochemical. The settings on record: RAd infected CHO K1 cells, supernatant 48 hours after infection. The procedure:
(§1) For the CPG2 capture ELISA, 96 well plates precoated with goat anti-mouse IgG are used (PIERCE REACII-BIND™ 15134 plates). A second layer of mouse monoclonal anti-CPG2 diluted 1:800 in PBS/0.05% TWEEN™/BSA is added by overnight incubation at 4°. In between each binding step the plate is washed 3 times with PBS/0.05% TWEEN™. 100 μl test sample is added per well and doubling dilutions in PBS/0.05%TWEEN™ carried out across the plate. A fourth layer of rabbit polyclonal anti-CPG2 diluted 1:2500 in PBS/0.05% TWEEN™/2% BSA is added followed by a final layer of goat anit-rabbit IgG Horse Radish Peroxidase Labelled Antibody (DAKO PO448) diluted 1:1000 in PBS/0.05% TWEEN™/2% BSA. To detect binding, 100 μl per well of developing solution is added [one capsule of phosphate-citrate buffer (Sigma P4922) dissolved in 100 ml water to which is added one 30 mg tablet o-phenyldiamine dihydrochloride (Sigma P4812)] and the reaction stopped after 5 mins by adding 75 μl 2M H2SO4, and the absorbance read at 490 nm.
To measure CPG2 enzyme activity in cell supernatant samples at HPLC based CPG2 enzyme assay can be used. […] 60 μl of sample is injected and the absorbance at 300 nm measured over a total run time of 8 mins/sample giving expected retention times for methotrexate and metabolite of 3.9 and 5.6 respectively. […]

Series [3] is described as follows: HPLC based CPG2 enzyme activity assay with CPG2 capture ELISA, supernatants of transiently transfected COS 7 cells. Type of series: biochemical. Conditions: for specific activity of unpurified protein in crude supernatant, expressed in presence of tunicamycin / specific activity of unpurified protein in crude supernatant: COS 7 transient plasmid expression; for specific activity of unpurified protein in crude supernatant, expressed in presence of tunicamycin: 10 μg/ml tunicamycin (unglycosylated protein); for specific activity of unpurified protein in crude supernatant: tunicamycin absent, for CPG2 the combined activity of three protein forms (glycosylated and unglycosylated). The procedure:
Transient tranfection of COS 7 cells can be achieved using a LIPOFECTIN™ based procedure. LIPOFECTIN™ Reagent (Gibco BRL Cat. No. 18292-011) is a 1:1 (w/w) liposome formulation of the cationic lipid DOTMA and DOPE in membrane filtered water. It binds spontaneously with DNA to form a lipid-DNA complex (Felgner et al., Proc. Natl. Acad Sci. USA (1987) 84, 7431. COS 7 cells are seeded into a 6 well plate a 2×10^5 cell/2 ml/well, from a subconfluent culture and incubated overnight at 37°, 5% CO2. A LIPOFECTIN™/serum free medium mix is made up containing 120 μl LIPOFECTIN™ plus 480 μl serum free medium and incubated at room temperature for 30 minutes. A DNA/serum free medium mix is prepared by mixing 12 μg DNA with 600 μl serum free medium. The LIPOFECTIN™/serum free medium mix is added to the DNA/serum free medium mix and left at room temperature for 15 mins. The cells are washed once with 2 ml serum free-medium, then 800 μl serum free media added plus 200 μl LIPOFECTIN™/DNA mix/well and incubated for 5 hours at 37°, 5% CO2. The LIPOFECIN™/DNA mix is removed from the cells and normal growth media added after which the cells are incubated for 48-72 hours at 37°, 5% CO2 when the supernatants are harvested.
COS 7 cells can also be transiently transfected in the presence of the glycosylation inhibitor tunicamycin. The transfection procedure is repeated as above, but after incubating for 5 hours at 37°, 5% CO2, 10 μg/ml tunicamycin (Sigma T7765) is added into the normal growth media.
as §1
To measure CPG2 enzyme activity in cell supernatant samples at HPLC based CPG2 enzyme assay can be used. 125 βl cell supernatant is pulsed in a micro-centrifuge to remove cell debris and 375 μl fresh reaction buffer (PBS/0.2 mM ZnCl2) added. Upon addition of 100 μM methotrexate, a substrate for the CPG2 enzyme, the reaction is incubated at 37° for 1 hour. The reaction is stopped by the addition of 500 μl methanol/0.2% Trifluoroacetio acid. The 1 ml sample is placed in a capped vial and assayed using HPLC. An isocratic separation with a mobile phase containing: 60% Methanol/40%, 60 mM Ammonium formate/0.1% Trifluoroacetic acid is used with an S5SC×column (Hichrom). 60 μl of sample is injected and the absorbance at 300 nm measured over a total run time of 8 mins/sample giving expected retention times for methotrexate and metabolite of 3.9 and 5.6 respectively.
The two plasmids pNG3/RC/CPG2 and pNG3/RC/CPG2(Q3) (which encoded the glycosylatable and Q3 variant secretory forms of the CPG2 protein respectively) were transfected into COS-7 cells using the LIPOFECTIN™ transfection procedure. To confirm that the mutagenesis of CPG2 to CPG2(Q3) had removed all potential glycosylation sites, the two proteins were also expressed in the presence of the glycosylation inhibitor, tunicamycin. After 72 h of expression the cell supernatants were harvested for analysis. […]
A general note: An ELISA detects its analyte on a solid surface through an enzyme-linked reagent.

B1: bacterial CPG2: purified, bacterially expressed CPG2 used as a standard (Sigma C4053) (protein, UniProt P06621 23-415, looked up)
Carboxypeptidase G2: ALAQKRDNVLFQAATDEQPAVIKTLEKLVNIETGTGDAEGIAAAGNFLEAELKNLGFTVTRSKSAGLVVGDNIVGKIKGRGGKNLLLMSHMDTVYLKGILAKAPFRVEGDKAYGPGIADDKGGNAVILHTLKLLKEYGVRDYGTITVLFNTDEEKGSFGSRDLIQEEAKLADYVLSFEPTSAGDEKLSLGTSGIAYVQVNITGKASHAGAAPELGVNALVEASDLVLRTMNIDDKAKNLRFNWTIAKAGNVSNIIPASATLNADVRYARNEDFDAAMKTLEERAQQKKLPEADVKVIVTRGRPAFNAGEGGKKLVDKAVAYYKEAGGTLGVEERTGGGTDAAYAALSGKPVIESLGLPGFGYHSDKAEYVDISAIPRRLYMAARLIMDLGAGK
For the molecule B1, in series [1], the “specific activity of purified bacterial CPG2” value is recorded as 500 units/mg.

B2: CPG2: carboxypeptidase G2 with kappa light chain secretory leader, unaltered glycosylation sites, expressed from mammalian cells (pNG3/RC/CPG2) (protein, UniProt P06621 23-415, looked up)
Carboxypeptidase G2: ALAQKRDNVLFQAATDEQPAVIKTLEKLVNIETGTGDAEGIAAAGNFLEAELKNLGFTVTRSKSAGLVVGDNIVGKIKGRGGKNLLLMSHMDTVYLKGILAKAPFRVEGDKAYGPGIADDKGGNAVILHTLKLLKEYGVRDYGTITVLFNTDEEKGSFGSRDLIQEEAKLADYVLSFEPTSAGDEKLSLGTSGIAYVQVNITGKASHAGAAPELGVNALVEASDLVLRTMNIDDKAKNLRFNWTIAKAGNVSNIIPASATLNADVRYARNEDFDAAMKTLEERAQQKKLPEADVKVIVTRGRPAFNAGEGGKKLVDKAVAYYKEAGGTLGVEERTGGGTDAAYAALSGKPVIESLGLPGFGYHSDKAEYVDISAIPRRLYMAARLIMDLGAGK
modifications: kappa light chain secretory leader
Take B2: the “specific activity of virally expressed secretable enzyme” value in series [2] was found to be 71 units/mg. In series [3], the “specific activity of unpurified protein in crude supernatant, expressed in presence of tunicamycin” value is 165-210 units/mg and the “specific activity of unpurified protein in crude supernatant” value was 61-87 units/mg.

B3: CPG2(Q3): CPG2 with asparagine at positions 222, 264 & 272 mutated to glutamine, secreted form (protein, UniProt P06621 23-415, looked up, variant N222Q N264Q N272Q)
Carboxypeptidase G2: ALAQKRDNVLFQAATDEQPAVIKTLEKLVNIETGTGDAEGIAAAGNFLEAELKNLGFTVTRSKSAGLVVGDNIVGKIKGRGGKNLLLMSHMDTVYLKGILAKAPFRVEGDKAYGPGIADDKGGNAVILHTLKLLKEYGVRDYGTITVLFNTDEEKGSFGSRDLIQEEAKLADYVLSFEPTSAGDEKLSLGTSGIAYVQVQITGKASHAGAAPELGVNALVEASDLVLRTMNIDDKAKNLRFQWTIAKAGQVSNIIPASATLNADVRYARNEDFDAAMKTLEERAQQKKLPEADVKVIVTRGRPAFNAGEGGKKLVDKAVAYYKEAGGTLGVEERTGGGTDAAYAALSGKPVIESLGLPGFGYHSDKAEYVDISAIPRRLYMAARLIMDLGAGK
modifications: secreted form
notes: CPG2 with asparagine at positions 222, 264 & 272 mutated to glutamine, secreted form
Regarding B3, in series [2], the “specific activity of virally expressed secretable enzyme” value was 180 units/mg. In series [3], the “specific activity of unpurified protein in crude supernatant, expressed in presence of tunicamycin” value is 90-124 units/mg and the “specific activity of unpurified protein in crude supernatant” value is 71-120 units/mg. Also, the “reduction of enzyme activity by mutagenesis of CPG2 to CPG2(Q3)” value in series [3] (as printed: compared with bacterial expressed enzyme) is reported as 2 fold. The “specific activity, fold lower than wild type bacterial enzyme” value in series [3] (unpurified protein, COS 7 supernatant) is listed as “approximately 5 fold”.
